Laboratory results from paper PMC10281526, “Polydom/SVEP1 binds to Tie1 and promotes migration of lymphatic endothelial cells” (The Journal of Cell Biology, 2023).

B1: recombinant Tie1 extracellular domain, Fc fusion protein [not stated] / GST fusion protein of the 20th CCP domain of Polydom [mouse] (parent complex)
chain 1: AVDLTLLANLRLTDPQRFFLTCVSGEAGAGRGSDAWGPPLLLEKDDRIVRTPPGPPLRLARNGSHQVTLRGFSKPSDLVGVFSCVGGAGARRTRVIYVHNSPGAHLLPDKVTHTVNKGDTAVLSARVHKEKQTDVIWKSNGSYFYTLDWHEAQDGRFLLQLPNVQPPSSGIYSATYLEASPLGSAFFRLIVRGCGAGRWGPGCTKECPGCLHGGVCHDHDGECVCPPGFTGTRCEQACREGRFGQSCQEQCPGISGCRGLTFCLPDPYGCSCGSGWRGSQCQEACAPGHFGADCRLQCQCQNGGTCDRFSGCVCPSGWHGVHCEKSDRIPQILNMASELEFNLETMPRINCAAAGNPFPVRGSIELRKPDGTVLLSTKAIVEPEKTTAEFEVPRLVLADSGFWECRVSTSGGQDSRRFKVNVKVPPVPLAAPRLLTKQSRQLVVSPLVSFSGDGPISTVRLHYRPQDSTMDWSTIVVDPSENVTLMNLRPKTGYSVRVQLSRPGEGGEGAWGPPTLMTTDCPEPLLQPWLEGWHVEGTDRLRVSWSLPLVPGPLVGDGFLLRLWDGTRGQERRENVSSPQARTALLTGLTPGTHYQLDVQLYHCTLLGPASPPAHVLLPPSGPPAPRHLHAQALSDSEIQLTWKHPEALPGPISKYVVEVQVAGGAGDPLWIDVDRPEETSTIIRGLNASTRYLFRMRASIQGLGDWSNTVEESTLGNGLQAEGPVQESRAAEEGLDQ
chain 2: IHCSDPQPIENGFVEGADYRYGAMIIYSCFPGFQVLGHAMQTCEESGWSSSSPTCVP

Variants of: B1
Test: solid-phase binding assay; parent: 1.25; read off a plot

response [A490]	Variant
~1.3	chain 2 R20A
~1.4	chain 2 Y19A
~0.04	chain 2 E15A
~1.2	chain 2 M24A
~1.1	chain 2 G22A
~0.93	chain 2 A17G

Second part, the variant before the results:

Variant	response [A490]
chain 2 I26A	~1.3
chain 2 V14A	~0.53
chain 2 A23G	~1.4
chain 2 D18A	~1.1
chain 2 G16A	~0.07
chain 2 I25A	~0.6
chain 2 Y21A	~1.4
